Where two headings read alike, the source gives them in different places.
Assays:
[1] = target: T1, mCADM3-GST (mouse); experiment: phage ELISA, mCADM3-GST immobilized
T1 construct: also called extracellular domain of mouse CADM3 to which GST was added at the C-terminal side; mouse CADM3-GST
Experimental: (§1) In the ELISA, hCADM3-GST and mCADM3-GST were immobilized (50 ng/50 μL) on MAXISORP (manufactured by NUNC, Inc.), followed by blocking using 0.5% BSA. To each well, each phage clone was added and allowed to react at room temperature for 1 hour, and thereafter, each well was washed 5 times with PBS-T. Subsequently, a biotinylated anti-M13 phage antibody (manufactured by Abcam plc) and horseradish peroxidase-labeled streptavidin (manufactured by Vector Co., Ltd.) were added to each well in an amount of 50 μL, followed by incubation at room temperature for 1 hour.
(§2) After the microplate was washed with PBS-T, a 3,3′,5,5′-tetramethylbenzidine (TMB) chromogenic substrate solution (manufactured by Calbiochem, Inc.) was added to each well, followed by incubation at room temperature. The coloring reaction was stopped by adding a 1 mol/L hydrochloric acid to each well, and an absorbance at a wavelength of 450 nm (reference wavelength: 570 nm) was measured using a microplate reader.

[2] = target: T2, hCADM3-GST (human); experiment: phage ELISA, hCADM3-GST immobilized
T2 construct: also called extracellular domain of human CADM3 to which GST was added at the C-terminal side; human CADM3-GST
Experimental: as §1, §2

[3] = target: T3, mouse CADM3 (mouse, UniProt Q99N28 23-396); experiment: flow cytometry, mouse CADM3/Expi293F vs parent Expi293F cells
T3 construct: Full-length gene expressed transiently on Expi293F cells; also called mouse CADM3/Expi293F cells; Mouse CADM3-expressing cells
T3 sequence: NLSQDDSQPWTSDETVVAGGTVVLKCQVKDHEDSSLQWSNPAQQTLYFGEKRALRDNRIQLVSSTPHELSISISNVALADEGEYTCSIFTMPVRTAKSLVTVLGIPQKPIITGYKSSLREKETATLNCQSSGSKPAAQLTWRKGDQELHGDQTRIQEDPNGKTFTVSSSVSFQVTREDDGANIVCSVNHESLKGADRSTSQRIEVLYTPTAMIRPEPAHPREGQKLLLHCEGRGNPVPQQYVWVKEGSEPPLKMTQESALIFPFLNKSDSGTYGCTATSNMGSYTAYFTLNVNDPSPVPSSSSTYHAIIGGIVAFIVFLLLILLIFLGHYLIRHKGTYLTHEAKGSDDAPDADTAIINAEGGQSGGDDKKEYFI

[4] = target: T3, mouse CADM3; experiment: flow cytometry, 10 ug/mL, mouse CADM3/Expi293F vs parent Expi293F cells
Experimental: (§3) After washing with SB, the cells were suspended in SB, and the fluorescence intensity of each cell was measured using a flow cytometer FACS CANTO II (manufactured by Becton, Dickinson and Company). Note that as a negative control, 10 μg/mL of the anti-AVM antibody was used.
(§4) The detection results were analyzed, and a mean fluorescence intensity (MFI) was calculated using a geometric mean. Further, with respect to the MFI when the concentration of each antibody was 10 μg/mL, the ratio of the MFI (mean fluorescence intensity ratio) between the human CADM3/Expi293F cells and the Expi293F cells (parent cell line) was calculated.
(§5) With respect to the produced humanized anti-CADM3 VHH-Fc antibodies, reactivity with Expi293F cells, human CADM3/Expi293F cells, and mouse CADM3/Expi293F cells was analyzed by the same procedure as in Example 3.

[5] = target: T3, mouse CADM3; experiment: as above; remark: listed apart in the source
Experimental: as §3, §4, §5

[6] = target: T3, mouse CADM3; experiment: as above; remark: listed apart in the source
[7] = target: T3, mouse CADM3; experiment: as above; remark: listed apart in the source
Experimental: as §3, §4
Further, also with respect to AVM IgG4PE(R409K)_iCADM3_3R1-L5 dVHH, AVM IgG4PE(R409K)_iCADM3_3R1-L8 dVHH, AVM IgG4PE(R409K)_iCADM3_3R1-L10 dVHH, and AVM IgG4PE(R409K)_iCADM3_3R1-L11 dVHH, reactivity with the Expi293F cells, the human CADM3/Expi293F cells, and the mouse CADM3/Expi293F cells was analyzed by the same procedure, and the results are shown in Table 5.

B1: iCADM3_3R1-L11 (VHH)
VHH: QVQLVESGGGLVQAGGSLRLSCAASGSIFSFNAMGWYRQAPGKQRGLVAVITSGGYTNYADSVKGRFTITRDNAKNTVYLQMNSLKPEDTAVYYCNAEGVYSDYVIMNYWGQGTQVTVSS
notes: also called iCADM3-3R1-L11 antibody; anti-CADM3 VHH antibody (phage clone)
B1: binds [1]; binds [2].

B2: anti-AVM antibody (antibody, V domains shown)
VH: EVQLVESGGGLVQPGRSLKLSCAASGFTFSNYAMAWVRRAPTKGLEWVASISNGGGNTYYRDSVKGRFTISRDDAKNTLYLQMDSLRSEDTATYYCARHGNYIYYGSFFDYWGQGVMVTVSS
VL: QFVLSQPNSVSTNLGSTVKLSCKRSTGNIGSNYVSWYQQHEGRSPTTMIYRDDKRPDGVPDRFSGSIDRSSDSALLTINNVQTEDEADYFCQSYSSGINIFGGGTKLTVLG
notes: Negative control; also called chimeric anti-Avermectin (AVM) antibody; anti-AVM-IgG4 antibody
For B2, the binding result [3] was “no binding (tested: 10 ug/mL)”, the “Mean fluorescence intensity ratio” value [4] was 1.02 and the “Mean fluorescence intensity ratio” value [5] was 1.02. The “Mean fluorescence intensity ratio” value [6] was 1.07 and the “Mean fluorescence intensity ratio” value [7] was 1.15.

B3: iCADM3_3R1-L10 (VHH)
VHH: QVQLVESGGGLVQAGGSLRLSCAASGSIFSIHAMGWYRQAPGKQRELVATVTSGGSTNYADSVKGRFTISRDNAKNTVYLQMNSLKPEDTAVYYCNAETPYYSSTYYTNYWGQGTQVTVSS
notes: also called iCADM3-3R1-L10 antibody; anti-CADM3 VHH antibody (phage clone)
B3: binds [1]; binds [2].
